Source: article PMC3476531, “Synergy of Peptide and Sugar in O-GlcNAcase Substrate Recognition” (Chemistry & Biology, 2012)
*: point of attachment. βGlcNAc = CC(=O)N[C@@H]1[C@@H](O)[C@H](O)[C@@H](CO)O[C@H]1*

Key:
[1] = target: T1, human O-GlcNAcase (hOGA) Y69F (human) (UniProt O60502)
T1 sequence: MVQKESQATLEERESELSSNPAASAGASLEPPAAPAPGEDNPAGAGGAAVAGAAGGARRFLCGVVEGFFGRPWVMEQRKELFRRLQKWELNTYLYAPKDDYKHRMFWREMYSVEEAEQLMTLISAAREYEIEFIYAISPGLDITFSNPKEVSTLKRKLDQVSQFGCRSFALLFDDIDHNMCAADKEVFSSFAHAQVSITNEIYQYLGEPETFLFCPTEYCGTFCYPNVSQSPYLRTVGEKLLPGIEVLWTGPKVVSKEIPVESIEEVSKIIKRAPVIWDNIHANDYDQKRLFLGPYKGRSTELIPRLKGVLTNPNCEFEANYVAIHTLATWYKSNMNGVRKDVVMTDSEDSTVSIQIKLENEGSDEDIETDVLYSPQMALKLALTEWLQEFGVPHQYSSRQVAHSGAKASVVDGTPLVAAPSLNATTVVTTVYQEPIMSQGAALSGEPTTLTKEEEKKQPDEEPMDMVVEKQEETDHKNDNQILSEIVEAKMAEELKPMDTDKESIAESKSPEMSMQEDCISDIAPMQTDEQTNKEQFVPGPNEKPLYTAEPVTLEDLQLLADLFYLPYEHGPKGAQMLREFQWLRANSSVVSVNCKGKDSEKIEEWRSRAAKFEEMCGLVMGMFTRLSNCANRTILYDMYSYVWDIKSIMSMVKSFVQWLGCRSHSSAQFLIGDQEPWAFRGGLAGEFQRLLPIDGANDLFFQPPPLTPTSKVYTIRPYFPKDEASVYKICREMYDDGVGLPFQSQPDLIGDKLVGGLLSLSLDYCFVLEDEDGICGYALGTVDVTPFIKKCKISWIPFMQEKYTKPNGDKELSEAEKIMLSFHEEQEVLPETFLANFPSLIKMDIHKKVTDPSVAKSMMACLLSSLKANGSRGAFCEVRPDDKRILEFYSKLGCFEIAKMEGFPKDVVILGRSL

[2] = target: T2, human O-GlcNAcase (hOGA) Y69S (human) (UniProt O60502)
T2 sequence: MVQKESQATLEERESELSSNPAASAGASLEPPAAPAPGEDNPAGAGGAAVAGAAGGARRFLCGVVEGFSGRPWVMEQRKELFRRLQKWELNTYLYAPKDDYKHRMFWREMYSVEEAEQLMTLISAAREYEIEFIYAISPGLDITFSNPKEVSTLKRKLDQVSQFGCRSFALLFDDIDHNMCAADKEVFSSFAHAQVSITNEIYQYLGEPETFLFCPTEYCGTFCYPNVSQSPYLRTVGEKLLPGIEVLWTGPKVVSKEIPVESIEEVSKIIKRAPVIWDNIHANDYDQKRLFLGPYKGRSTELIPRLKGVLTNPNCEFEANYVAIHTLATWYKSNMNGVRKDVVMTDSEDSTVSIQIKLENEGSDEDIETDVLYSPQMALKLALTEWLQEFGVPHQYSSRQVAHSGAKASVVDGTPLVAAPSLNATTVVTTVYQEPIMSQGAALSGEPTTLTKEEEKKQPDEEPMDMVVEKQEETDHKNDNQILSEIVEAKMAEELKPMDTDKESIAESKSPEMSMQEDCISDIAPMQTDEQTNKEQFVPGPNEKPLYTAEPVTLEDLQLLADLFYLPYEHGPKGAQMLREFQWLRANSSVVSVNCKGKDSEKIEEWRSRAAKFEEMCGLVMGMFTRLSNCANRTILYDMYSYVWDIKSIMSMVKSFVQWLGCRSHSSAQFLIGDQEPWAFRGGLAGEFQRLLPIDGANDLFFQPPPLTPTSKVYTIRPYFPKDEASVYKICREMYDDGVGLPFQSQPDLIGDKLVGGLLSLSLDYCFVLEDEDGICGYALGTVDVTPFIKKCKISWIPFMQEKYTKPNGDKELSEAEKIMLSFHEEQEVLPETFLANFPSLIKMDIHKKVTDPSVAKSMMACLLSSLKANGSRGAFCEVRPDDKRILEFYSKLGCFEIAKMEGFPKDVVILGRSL

[3] = target: T3, human O-GlcNAcase (hOGA) Y69K (human) (UniProt O60502)
T3 sequence: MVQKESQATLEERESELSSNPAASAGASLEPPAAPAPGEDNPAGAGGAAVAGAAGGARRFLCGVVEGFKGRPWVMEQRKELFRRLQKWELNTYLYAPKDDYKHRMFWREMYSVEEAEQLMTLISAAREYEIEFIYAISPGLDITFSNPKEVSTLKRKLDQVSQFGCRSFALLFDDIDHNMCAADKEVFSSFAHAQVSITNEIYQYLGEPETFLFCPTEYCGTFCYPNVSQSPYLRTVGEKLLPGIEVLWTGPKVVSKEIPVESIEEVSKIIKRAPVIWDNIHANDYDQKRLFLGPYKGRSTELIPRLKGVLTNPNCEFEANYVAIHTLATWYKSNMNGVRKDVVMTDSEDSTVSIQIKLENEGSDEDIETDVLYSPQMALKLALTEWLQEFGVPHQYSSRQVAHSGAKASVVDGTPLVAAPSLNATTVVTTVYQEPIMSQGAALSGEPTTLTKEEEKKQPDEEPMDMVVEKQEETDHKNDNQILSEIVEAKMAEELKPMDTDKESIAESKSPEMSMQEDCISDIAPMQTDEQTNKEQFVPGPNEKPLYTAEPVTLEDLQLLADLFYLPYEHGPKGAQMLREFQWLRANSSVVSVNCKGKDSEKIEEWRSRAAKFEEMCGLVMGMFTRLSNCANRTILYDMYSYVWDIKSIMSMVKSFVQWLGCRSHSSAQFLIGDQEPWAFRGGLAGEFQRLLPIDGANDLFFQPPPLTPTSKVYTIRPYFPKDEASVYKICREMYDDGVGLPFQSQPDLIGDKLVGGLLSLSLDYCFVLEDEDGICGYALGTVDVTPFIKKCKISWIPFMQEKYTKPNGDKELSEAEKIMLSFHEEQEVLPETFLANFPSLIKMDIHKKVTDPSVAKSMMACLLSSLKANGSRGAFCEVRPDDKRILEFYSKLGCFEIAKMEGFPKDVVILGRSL

[4] = target: T4, human O-GlcNAcase (hOGA) Y69Q (human) (UniProt O60502)
T4 sequence: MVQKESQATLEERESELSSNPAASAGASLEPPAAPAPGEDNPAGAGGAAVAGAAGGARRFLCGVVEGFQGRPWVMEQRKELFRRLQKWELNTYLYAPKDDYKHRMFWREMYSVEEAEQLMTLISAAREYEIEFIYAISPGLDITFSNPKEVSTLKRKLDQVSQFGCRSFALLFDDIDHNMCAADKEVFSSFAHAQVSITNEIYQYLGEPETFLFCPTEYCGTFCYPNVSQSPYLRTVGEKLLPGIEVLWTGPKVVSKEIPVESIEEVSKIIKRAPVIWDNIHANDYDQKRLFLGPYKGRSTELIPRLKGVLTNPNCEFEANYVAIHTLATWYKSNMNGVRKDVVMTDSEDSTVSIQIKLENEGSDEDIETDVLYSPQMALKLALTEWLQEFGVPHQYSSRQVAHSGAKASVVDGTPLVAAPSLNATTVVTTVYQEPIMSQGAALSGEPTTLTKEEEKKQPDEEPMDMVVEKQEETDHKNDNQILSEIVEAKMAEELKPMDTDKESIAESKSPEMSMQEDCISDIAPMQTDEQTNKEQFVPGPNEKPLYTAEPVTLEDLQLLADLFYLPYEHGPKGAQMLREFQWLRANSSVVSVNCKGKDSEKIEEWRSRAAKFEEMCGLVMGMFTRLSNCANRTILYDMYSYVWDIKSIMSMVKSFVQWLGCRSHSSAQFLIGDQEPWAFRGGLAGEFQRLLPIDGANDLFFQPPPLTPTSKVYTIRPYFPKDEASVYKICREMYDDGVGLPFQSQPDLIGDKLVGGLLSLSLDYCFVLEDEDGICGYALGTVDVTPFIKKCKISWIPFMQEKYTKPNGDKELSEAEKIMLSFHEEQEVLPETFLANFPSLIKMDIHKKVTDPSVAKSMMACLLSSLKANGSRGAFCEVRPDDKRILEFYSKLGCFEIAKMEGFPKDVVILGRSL

[5] = target: T5, human O-GlcNAcase (hOGA), wild-type (human) (UniProt O60502)
T5 sequence: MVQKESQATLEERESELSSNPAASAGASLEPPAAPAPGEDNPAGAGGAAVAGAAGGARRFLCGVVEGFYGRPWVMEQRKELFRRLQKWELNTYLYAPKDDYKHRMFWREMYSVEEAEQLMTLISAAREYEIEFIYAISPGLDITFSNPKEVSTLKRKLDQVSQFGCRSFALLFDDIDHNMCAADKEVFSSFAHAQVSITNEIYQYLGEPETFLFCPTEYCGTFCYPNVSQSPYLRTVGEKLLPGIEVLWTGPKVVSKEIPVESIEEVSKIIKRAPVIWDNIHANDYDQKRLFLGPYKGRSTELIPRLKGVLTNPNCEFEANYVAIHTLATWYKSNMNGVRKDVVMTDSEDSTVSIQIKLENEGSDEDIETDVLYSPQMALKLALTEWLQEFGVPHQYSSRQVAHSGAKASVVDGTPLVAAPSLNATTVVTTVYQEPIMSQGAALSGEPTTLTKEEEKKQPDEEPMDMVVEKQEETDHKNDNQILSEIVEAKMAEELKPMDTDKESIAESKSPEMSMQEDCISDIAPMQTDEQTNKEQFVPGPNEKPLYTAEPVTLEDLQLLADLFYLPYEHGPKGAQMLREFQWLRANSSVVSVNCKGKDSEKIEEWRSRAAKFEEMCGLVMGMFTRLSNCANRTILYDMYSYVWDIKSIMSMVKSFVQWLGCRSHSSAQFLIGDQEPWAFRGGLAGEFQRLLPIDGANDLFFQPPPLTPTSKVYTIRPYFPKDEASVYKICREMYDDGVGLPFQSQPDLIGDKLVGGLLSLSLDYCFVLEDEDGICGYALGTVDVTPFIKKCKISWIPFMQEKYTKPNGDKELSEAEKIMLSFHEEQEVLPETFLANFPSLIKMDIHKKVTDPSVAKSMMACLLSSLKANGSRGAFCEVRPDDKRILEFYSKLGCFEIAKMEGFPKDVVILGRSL

[6] = target: T5, human O-GlcNAcase (hOGA), wild-type (human); remark: listed apart in the source

With VAHSGAK [hOGA peptide VAHS(O-GlcNAc)GAK] the KM of the glycopeptide substrate (substrate competition assay with 4MU-GlcNAc as reporter substrate) [1] was 1200 µM, the KM of the glycopeptide substrate (substrate competition assay with 4MU-GlcNAc as reporter substrate) [2] was over 4000 µM and the KM of the glycopeptide substrate (substrate competition assay with 4MU-GlcNAc as reporter substrate) [3] was over 4000 µM. It also gave a KM of the glycopeptide substrate (substrate competition assay with 4MU-GlcNAc as reporter substrate) [4] of over 4000 µM.

B1: TAB1 peptide (Ser395) VPYS(O-GlcNAc)SAQ, original sequence (peptide)
peptide: Ac-VPYS(βGlcNAc)SAQ-NH2
SMILES: CC(=O)N[C@H]1[C@H](OC[C@H](NC(=O)[C@H](Cc2ccc(O)cc2)NC(=O)[C@@H]2CCCN2C(=O)[C@@H](NC(C)=O)C(C)C)C(=O)N[C@@H](CO)C(=O)N[C@@H](C)C(=O)N[C@@H](CCC(N)=O)C(N)=O)O[C@H](CO)[C@@H](O)[C@@H]1O
B1 gave a KM (hOGA) of the glycopeptide substrate (substrate competition assay with 4MU-GlcNAc as reporter substrate) [5] of 4100 µM.

B2: p53 peptide QLWVDS(O-GlcNAc)TPPPG (peptide)
peptide: Ac-QLWVDS(βGlcNAc)TPPPG-NH2
SMILES: CC(=O)N[C@H]1[C@H](OC[C@H](NC(=O)[C@H](CC(=O)O)NC(=O)[C@@H](NC(=O)[C@H](Cc2c[nH]c3ccccc23)NC(=O)[C@H](CC(C)C)NC(=O)[C@H](CCC(N)=O)NC(C)=O)C(C)C)C(=O)N[C@H](C(=O)N2CCC[C@H]2C(=O)N2CCC[C@H]2C(=O)N2CCC[C@H]2C(=O)NCC(N)=O)[C@@H](C)O)O[C@H](CO)[C@@H](O)[C@@H]1O
B2 showed a KM of the glycopeptide substrate (substrate competition assay with 4MU-GlcNAc as reporter substrate) [6] of 21 µM.

VPHSSAQ [TAB1 peptide (Ser395) VPHS(O-GlcNAc)SAQ, altered sequence] was tested, and the KM (hOGA) of the glycopeptide substrate (substrate competition assay with 4MU-GlcNAc as reporter substrate) [5] was 810 µM.
